The supplement of paper PMC5998384

Legend:
HeLa Kyoto [1] = assay: thermal stability score vs G1/S (z-score of summed log2 fold changes over temperatures); higher = more thermally stable than in G1/S
HeLa Kyoto [2] = assay: solubility in G1/S (NP-40 vs SDS abundance) (log2 ratio); higher = more soluble; details: cell cycle stage: G1/S
HeLa Kyoto [3] = assay: melting temperature (median over replicates), in situ; higher = more thermally stable
HeLa Kyoto [4] = assay: solubility change mitosis vs G1/S (difference of NP-40 vs SDS log2 ratios) (log2 ratio difference); higher = more soluble in mitosis
[5] = cell cycle stage: early G1 (4.5 h after nocodazole release)
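Wherever melting temperature (median over replicates), in situ is given: HeLa Kyoto cells synchronized by double thymidine or nocodazole block, proteins quantified by TMT10plex mass spectrometry, three independent biological replicates.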
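Wherever solubility change mitosis vs G1/S (difference of NP-40 vs SDS log2 ratios) is given: synchronized HeLa Kyoto cells (double thymidine block for G1/S, nocodazole release for mitosis), protein amounts in NP-40 versus SDS lysates quantified by mass spectrometry, three biological replicates.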
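Wherever solubility in G1/S (NP-40 vs SDS abundance) is given: HeLa Kyoto cells arrested at G1/S by double thymidine block, proteins quantified by TMT10plex mass spectrometry in mild NP-40 versus SDS extracts, three biological replicates.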
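Wherever thermal stability score vs G1/S (z-score of summed log2 fold changes over temperatures) is given: synchronized HeLa Kyoto cells, proteins quantified by TMT10plex mass spectrometry, three biological replicates, mitosis taken 0.5 h after nocodazole release, G1/S directly after double thymidine block.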

Sequence	thermal stability score (HeLa Kyoto [1]; [5])	thermal stability score (HeLa Kyoto [1]; cell cycle stage: mitosis)	solubility in G1/S (log2) (HeLa Kyoto [2])	melting temperature (HeLa Kyoto [3]; cell cycle stage: G1/S)	melting temperature (HeLa Kyoto [3]; cell cycle stage: mitosis)	solubility change mitosis (log2) (HeLa Kyoto [4])
MVDPVGFAEAWKAQFPDSEPPRMELRSVGDIEQELERCKASIRRLEQEVNQERFRMIYLQTLLAKEKKSYDRQRWGFRRAAQAPDGASEPRASASRPQPAPADGADPPPAEEPEARPDGEGSPGKARPGTARRPGAAASGERDDRGPPASVAALRSNFERIRKGHGQPGADAEKPFYVNVEFHHERGLVKVNDKEVSDRISSLGSQAMQMERKKSQHGAGSSVGDASRPPYRGRSSESSCGVDGDYEDAELNPRFLKDNLIDANGGSRPPWPPLEYQPYQSIYVGGMMEGEGKGPLLRSQSTSEQEKRLTWPRRSYSPRSFEDCGGGYTPDCSSNENLTSSEEDFSSGQSSRVSPSPTTYRMFRDKSRSPSQNSQQSFDSSSPPTPQCHKRHRHCPVVVSEATIVGVRKTGQIWPNDGEGAFHGDADGSFGTPPGYGCAADRAEEQRRHQDGLPYIDDSPSSSPHLSSKGRGSRDALVSGALESTKASELDLEKGLEMRKWVLSGILASEETYLSHLEALLLPMKPLKAAATTSQPVLTSQQIETIFFKVPELYEIHKEFYDGLFPRVQQWSHQQRVGDLFQKLASQLGVYRAFVDNYGVAMEMAEKCCQANAQFAEISENLRARSNKDAKDPTTKNSLETLLYKPVDRVTRSTLVLHDLLKHTPASHPDHPLLQDALRISQNFLSSINEEITPRRQSMTVKKGEHRQLLKDSFMVELVEGARKLRHVFLFTDLLLCTKLKKQSGGKTQQYDCKWYIPLTDLSFQMVDELEAVPNIPLVPDEELDALKIKISQIKNDIQREKRANKGSKATERLKKKLSEQESLLLLMSPSMAFRVHSRNGKSYTFLISSDYERAEWRENIREQQKKCFRSFSLTSVELQMLTNSCVKLQTVHSIPLTINKEDDESPGLYGFLNVIVHSATGFKQSSNLYCTLEVDSFGYFVNKAKTRVYRDTAEPNWNEEFEIELEGSQTLRILCYEKCYNKTKIPKEDGESTDRLMGKGQVQLDPQALQDRDWQRTVIAMNGIEVKLSVKFNSREFSLKRMPSRKQTGVFGVKIAVVTKRERSKVPYIVRQCVEEIERRGMEEVGIYRVSGVATDIQALKAAFDVNNKDVSVMMSEMDVNAIAGTLKLYFRELPEPLFTDEFYPNFAEGIALSDPVAKESCMLNLLLSLPEANLLTFLFLLDHLKRVAEKEAVNKMSLHNLATVFGPTLLRPSEKESKLPANPSQPITMTDSWSLEVMSQVQVLLYFLQLEAIPAPDSKRQSILFSTEV [BCR]	0.827	1.59	-0.109	49 °C	49.2 °C	-0.114
MVEDELALFDKSINEFWNKFKSTDTSCQMAGLRDTYKDSIKAFAEKLSVKLKEEERMVEMFLEYQNQISRQNKLIQEKKDNLLKLIAEVKGKKQELEVLTANIQDLKEEYSRKKETISTANKANAERLKRLQKSADLYKDRLGLEIRKIYGEKLQFIFTNIDPKNPESPFMFSLHLNEARDYEVSDSAPHLEGLAEFQENVRKTNNFSAFLANVRKAFTATVYN [SPC25]	-0.881	-0.275	0.585	49.5 °C	49.6 °C	0.0937
MVEEVQKHSVHTLVFRSLKRTHDMFVADNGKPVPLDEESHKRKMAIKLRNEYGPVLHMPTSKENLKEKGPQNATDSYVHKQYPANQGQEVEYFVAGTHPYPPGPGVALTADTKIQRMPSESAAQSLAVALPLQTKADANRTAPSGSEYRHPGASDRPQPTAMNSIVMETGNTKNSALMAKKAPTMPKPQWHPPWKLYRVISGHLGWVRCIAVEPGNQWFVTGSADRTIKIWDLASGKLKLSLTGHISTVRGVIVSTRSPYLFSCGEDKQVKCWDLEYNKVIRHYHGHLSAVYGLDLHPTIDVLVTCSRDSTARIWDVRTKASVHTLSGHTNAVATVRCQAAEPQIITGSHDTTIRLWDLVAGKTRVTLTNHKKSVRAVVLHPRHYTFASGSPDNIKQWKFPDGSFIQNLSGHNAIINTLTVNSDGVLVSGADNGTMHLWDWRTGYNFQRVHAAVQPGSLDSESGIFACAFDQSESRLLTAEADKTIKVYREDDTATEETHPVSWKPEIIKRKRF [PLRG1]	-0.0826	-5.45	-0.776	50.6 °C	50.6 °C	0.247
MVEKEEAGGGISEEEAAQYDRQIRLWGLEAQKRLRASRVLLVGLKGLGAEIAKNLILAGVKGLTMLDHEQVTPEDPGAQFLIRTGSVGRNRAEASLERAQNLNPMVDVKVDTEDIEKKPESFFTQFDAVCLTCCSRDVIVKVDQICHKNSIKFFTGDVFGYHGYTFANLGEHEFVEEKTKVAKVSQGVEDGPDTKRAKLDSSETTMVKKKVVFCPVKEALEVDWSSEKAKAALKRTTSDYFLLQVLLKFRTDKGRDPSSDTYEEDSELLLQIRNDVLDSLGISPDLLPEDFVRYCFSEMAPVCAVVGGILAQEIVKALSQRDPPHNNFFFFDGMKGNGIVECLGPK [SAE1]	0.0359	0.096	0.0883	52.4 °C	52.3 °C	-0.153
MVGEEKMSLRNRLSKSRENPEEDEDQRNPAKESLETPSNGRIDIKQLIAKKIKLTAEAEELKPFFMKEVGSHFDDFVTNLIEKSASLDNGGCALTTFSVLEGEKNNHRAKDLRAPPEQGKIFIARRSLLDELLEVDHIRTIYHMFIALLILFILSTLVVDYIDEGRLVLEFSLLSYAFGKFPTVVWTWWIMFLSTFSVPYFLFQHWATGYSKSSHPLIRSLFHGFLFMIFQIGVLGFGPTYVVLAYTLPPASRFIIIFEQIRFVMKAHSFVRENVPRVLNSAKEKSSTVPIPTVNQYLYFLFAPTLIYRDSYPRNPTVRWGYVAMKFAQVFGCFFYVYYIFERLCAPLFRNIKQEPFSARVLVLCVFNSILPGVLILFLTFFAFLHCWLNAFAEMLRFGDRMFYKDWWNSTSYSNYYRTWNVVVHDWLYYYAYKDFLWFFSKRFKSAAMLAVFAVSAVVHEYALAVCLSFFYPVLFVLFMFFGMAFNFIVNDSRKKPIWNVLMWTSLFLGNGVLLCFYSQEWYARQHCPLKNPTFLDYVRPRSWTCRYVF [SOAT1]	0.192	0.0734	-0.292	52.2 °C	52 °C	-0.0778
MVGRNSAIAAGVCGALFIGYCIYFDRKRRSDPNFKNRLRERRKKQKLAKERAGLSKLPDLKDAEAVQKFFLEEIQLGEELLAQGEYEKGVDHLTNAIAVCGQPQQLLQVLQQTLPPPVFQMLLTKLPTISQRIVSAQSLAEDDVE [TOMM20]	-2.96	-4.96	0.747	49.7 °C	51.7 °C	0.294
MVGSLNCIVAVSQNMGIGKNGDLPWPPLRNEFRYFQRMTTTSSVEGKQNLVIMGKKTWFSIPEKNRPLKGRINLVLSRELKEPPQGAHFLSRSLDDALKLTEQPELANKVDMVWIVGGSSVYKEAMNHPGHLKLFVTRIMQDFESDTFFPEIDLEKYKLLPEYPGVLSDVQEEKGIKYKFEVYEKND [DHFR]	1.37	2.73	0.294	47.9 °C	49.1 °C	-0.139
MVHCSCVLFRKYGNFIDKLRLFTRGGSGGMGYPRLGGEGGKGGDVWVVAQNRMTLKQLKDRYPRKRFVAGVGANSKISALKGSKGKDCEIPVPVGISVTDENGKIIGELNKENDRILVAQGGLGGKLLTNFLPLKGQKRIIHLDLKLIADVGLVGFPNAGKSSLLSCVSHAKPAIADYAFTTLKPELGKIMYSDFKQISVADLPGLIEGAHMNKGMGHKFLKHIERTRQLLFVVDISGFQLSSHTQYRTAFETIILLTKELELYKEELQTKPALLAVNKMDLPDAQDKFHELMSQLQNPKDFLHLFEKNMIPERTVEFQHIIPISAVTGEGIEELKNCIRKSLDEQANQENDALHKKQLLNLWISDTMSSTEPPSKHAVTTSKMDII [GTPBP10]	-0.944	0.176	0.217	49.4 °C	50.8 °C	0.0276
MVIRVYIASSSGSTAIKKKQQDVLGFLEANKIGFEEKDIAANEENRKWMRENVPENSRPATGYPLPPQIFNESQYRGDYDAFFEARENNAVYAFLGLTAPPGSKEAEVQAKQQA [SH3BGRL]	-0.605	-2.76	0.375	53.2 °C	53 °C	-0.0943
MVKLAAKCILAGDPAVGKTALAQIFRSDGAHFQKSYTLTTGMDLVVKTVPVPDTGDSVELFIFDSAGKELFSEMLDKLWESPNVLCLVYDVTNEESFNNCSKWLEKARSQAPGISLPGVLVGNKTDLAGRRAVDSAEARAWALGQGLECFETSVKEMENFEAPFHCLAKQFHQLYREKVEVFRALA [IFT27]	-0.15	-0.857	0.371	52.3 °C	53.7 °C	-0.134
MVKLFIGNLPREATEQEIRSLFEQYGKVLECDIIKNYGFVHIEDKTAAEDAIRNLHHYKLHGVNINVEASKNKSKTSTKLHVGNISPTCTNKELRAKFEEYGPVIECDIVKDYAFVHMERAEDAVEAIRGLDNTEFQGKRMHVQLSTSRLRTAPGMGDQSGCYRCGKEGHWSKECPIDRSGRVADLTEQYNEQYGAVRTPYTMSYGDSLYYNNAYGALDAYYKRCRAARSYEAVAAAAASVYNYAEQTLSQLPQVQNTAMASHLTSTSLDPYDRHLLPTSGAAATAAAAAAAAAAVTAASTSYYGRDRSPLRRATAPVPTVGEGYGYGHESELSQASAAARNSLYDMARYEREQYADRARYSAF [RBM4]	-0.245	-0.114	0.281	49.6 °C	48 °C	-0.0121
MVLSELAARLNCAEYKNWVKAGHCLLLLRSCLQGFVGREVLSFHRGLLAAAPGLGPRAVCRGGSRCSPRARQFQPQCQVCAEWKREILRHHVNRNGDVHWGNCRPGRWPVDAWEVAKAFMPRGLADKQGPEECDAVALLSLINSCDHFVVDRKKVTEVIKCRNEIMHSSEMKVSSTWLRDFQMKIQNFLNEFKNIPEIVAVYSRIEQLLTSDWAVHIPEEDQRDGCECEMGTYLSESQVNEIEMQLLKEKLQEIYLQAEEQEVLPEELSNRLEVVKEFLRNNEDLRNGLTEDMQKLDSLCLHQKLDSQEPGRQTPDRKA [CXORF38]	-0.304	2.18	0.0857	52.5 °C	52.1 °C	-0.0263
MVLSQRQRDELNRAIADYLRSNGYEEAYSVFKKEAELDVNEELDKKYAGLLEKKWTSVIRLQKKVMELESKLNEAKEEFTSGGPLGQKRDPKEWIPRPPEKYALSGHRSPVTRVIFHPVFSVMVSASEDATIKVWDYETGDFERTLKGHTDSVQDISFDHSGKLLASCSADMTIKLWDFQGFECIRTMHGHDHNVSSVAIMPNGDHIVSASRDKTIKMWEVQTGYCVKTFTGHREWVRMVRPNQDGTLIASCSNDQTVRVWVVATKECKAELREHEHVVECISWAPESSYSSISEATGSETKKSGKPGPFLLSGSRDKTIKMWDVSTGMCLMTLVGHDNWVRGVLFHSGGKFILSCADDKTLRVWDYKNKRCMKTLNAHEHFVTSLDFHKTAPYVVTGSVDQTVKVWECR [PAFAH1B1]	1.3	-0.762	-0.211	55.8 °C	55.5 °C	-0.149
MVMEKPSPLLVGREFVRQYYTLLNKAPEYLHRFYGRNSSYVHGGVDASGKPQEAVYGQNDIHHKVLSLNFSECHTKIRHVDAHATLSDGVVVQVMGLLSNSGQPERKFMQTFVLAPEGSVPNKFYVHNDMFRYEDEVFGDSEPELDEESEDEVEEEQEERQPSPEPVQENANSGYYEAHPVTNGIEEPLEESSHEPEPEPESETKTEELKPQVEEKNLEELEEKSTTPPPAEPVSLPQEPPKAFSWASVTSKNLPPSGTVSSSGIPPHVKAPVSQPRVEAKPEVQSQPPRVREQRPRERPGFPPRGPRPGRGDMEQNDSDNRRIIRYPDSHQLFVGNLPHDIDENELKEFFMSFGNVVELRINTKGVGGKLPNFGFVVFDDSEPVQRILIAKPIMFRGEVRLNVEEKKTRAARERETRGGGDDRRDIRRNDRGPGGPRGIVGGGMMRDRDGRGPPPRGGMAQKLGSGRGTGQMEGRFTGQRR [G3BP2]	-0.995	-2.86	-0.124	51.7 °C	50.4 °C	0.158
